Measured values taken from patent US20200261490A1 (AARHUS UNIVERSITET, published 2020).

Legend:
[1] = target: T1, recombinant human stanniocalcin 1, C-terminally myc-his-tagged (human, UniProt P52823 34-247); test: SPR (Biacore T200); PAPP-A captured by immobilised mAb 234-5, purified STC1 as analyte, global 1:1 Langmuir fit
Method: (§1) Surface plasmon resonance experiments were carried out on a Biacore T200 (GE Healthcare). Using amine coupling, purified monoclonal antibody 234-5 was immobilized in flow cells (FC) 3 and 4 of a Series S CM5 Sensor Chip (GE Healthcare). To reach a coupling density of 5,000 response units (RU), the antibody was diluted to 30 μg ml⁻¹ in 10 mM sodium acetate, pH 4.75. Remaining active groups were blocked by a 7 min injection of 1 M ethanolamine, pH 8.0. […] The association phase was 180 s, followed by a 1,000 s dissociation phase. At the end of each binding cycle, both surfaces were regenerated by a 40 s injection of 0.1 M glycine, pH 2.5, and 0.5 M guanidine hydrochloride. […] Binding analysis was performed at 25° C., and data were collected at a rate of 10 Hz. Recorded signals were subtracted the background signal, as determined by the response obtained from the reference cell. Global fitting of a 1:1 Langmuir model was performed, using the Biacore T200 Evaluation Software, version 1.0.

[2] = target: T1, recombinant human stanniocalcin 1, …; test: SPR (Biacore T200), PAPP-A captured by immobilised mAb 234-5, STC1 injected at 0.20-6.26 nM, global 1:1 Langmuir fit
Method: as §1

- Kd [1]: 0.075 nM
- Kd [2]: 0.0749 nM
- koff [2]: 0.000208 s⁻¹
- kon [2]: 2.78e+06 M⁻¹ s⁻¹
B1: recombinant human PAPP-A (pregnancy-associated plasma protein-A, pappalysin-1) (enzyme)
chain: EARGATEEPSPPSRALYFSGRGEQLRLRADLELPRDAFTLQVWLRAEGGQRSPAVITGLYDKCSYISRDRGWVVGIHTISDQDNKDPRYFFSLKTDRARQVTTINAHRSYLPGQWVYLAATYDGQFMKLYVNGAQVATSGEQVGGIFSPLTQKCKVLMLGGSALNHNYRGYIEHFSLWKVARTQREILSDMETHGAHTALPQLLLQENWDNVKHAWSPMKDGSSPKVEFSNAHGFLLDTSLEPPLCGQTLCDNTEVIASYNQLSSFRQPKVVRYRVVNLYEDDHKNPTVTREQVDFQHHQLAEAFKQYNISWELDVLEVSNSSLRRRLILANCDISKIGDENCDPECNHTLTGHDGGDCRHLRHPAFVKKQHNGVCDMDCNYERFNFDGGECCDPEITNVTQTCFDPDSPHRAYLDVNELKNILKLDGSTHLNIFFAKSSEEELAGVATWPWDKEALMHLGGIVLNPSFYGMPGHTHTMIHEIGHSLGLYHVFRGISEIQSCSDPCMETEPSFETGDLCNDTNPAPKHKSCGDPGPGNDTCGFHSFFNTPYNNFMSYADDDCTDSFTPNQVARMHCYLDLVYQGWQPSRKPAPVALAPQVLGHTTDSVTLEWFPPIDGHFFERELGSACHLCLEGRILVQYASNASSPMPCSPSGHWSPREAEGHPDVEQPCKSSVRTWSPNSAVNPHTVPPACPEPQGCYLELEFLYPLVPESLTIWVTFVSTDWDSSGAVNDIKLLAVSGKNISLGPQNVFCDVPLTIRLWDVGEEVYGIQIYTLDEHLEIDAAMLTSTADTPLCLQCKPLKYKVVRDPPLQMDVASILHLNRKFVDMDLNLGSVYQYWVITISGTEESEPSPAVTYIHGSGYCGDGIIQKDQGEQCDDMNKINGDGCSLFCRQEVSFNCIDEPSRCYFHDGDGVCEEFEQKTSIKDCGVYTPQGFLDQWASNASVSHQDQQCPGWVIIGQPAASQVCRTKVIDLSEGISQHAWYPCTISYPYSQLAQTTFWLRAYFSQPMVAAAVIVHLVTDGTYYGDQKQETISVQLLDTKDQSHDLGLHVLSCRNNPLIIPVVHDLSQPFYHSQAVRVSFSSPLVAISGVALRSFDNFDPVTLSSCQRGETYSPAEQSCVHFACEKTDCPELAVENASLNCSSSDRYHGAQCTVSCRTGYVLQIRRDDELIKSQTGPSVTVTCTEGKWNKQVACEPVDCSIPDHHQVYAASFSCPEGTTFGSQCSFQCRHPAQLKGNNSLLTCMEDGLWSFPEALCELMCLAPPPVPNADLQTARCRENKHKVGSFCKYKCKPGYHVPGSSRKSKKRAFKTQCTQDGSWQEGACVPVTCDPPPPKFHGLYQCTNGFQFNSECRIKCEDSDASQGLGSNVIHCRKDGTWNGSFHVCQEMQGQCSVPNELNSNLKLQCPDGYAIGSECATSCLDHNSESIILPMNVTVRDIPHWLNPTRVERVVCTAGLKWYPHPALIHCVKGCEPFMGDNYCDAINNRAFCNYDGGDCCTSTVKTKKVTPFPMSCDLQGDCACRDPQAQEHSRKDLRGYSHG
notes: Secreted from transfected HEK293T cells and used in culture medium; also called wt PAPP-A; huPAPP-A
